Reference: patent US20040176573A1
Like-named read-outs stand apart in the source and are kept apart here.

Key:
[1] = target: HLA-A2 (human)
[2] = target: HLA-A2 (human); remark: listed apart in the source

HIV-1 pol476-484 (peptide; other documents disagree on this pair)
C50 [1]: 0.2 µM
C50 [2]: 0.7 µM
